# Assay results reported in patent US20200030425.
# Like-named read-outs stand apart in the source and are kept apart here.
# Tests used:
# hCD32a-H131 (human) [1] = target: hCD32a-H131 (human) (UniProt P12318)
# hCD16a-F158 (human) [2] = target: hCD16a-F158 (human) (UniProt P08637)
# hCD32a-H131 (human) [3] = target: hCD32a-H131 (human) (UniProt P12318); remark: listed apart in the source
# hCD16a-F158 (human) [4] = target: hCD16a-F158 (human) (UniProt P08637); remark: listed apart in the source
# hCD16a-F158 (human), sequence (P08637 17-208): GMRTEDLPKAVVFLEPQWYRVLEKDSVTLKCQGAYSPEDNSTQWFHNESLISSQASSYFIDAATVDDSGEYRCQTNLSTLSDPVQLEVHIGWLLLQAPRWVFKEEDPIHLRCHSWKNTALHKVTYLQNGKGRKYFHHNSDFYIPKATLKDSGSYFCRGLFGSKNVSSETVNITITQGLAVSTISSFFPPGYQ
# hCD32a-H131 (human), sequence (P12318 34-217): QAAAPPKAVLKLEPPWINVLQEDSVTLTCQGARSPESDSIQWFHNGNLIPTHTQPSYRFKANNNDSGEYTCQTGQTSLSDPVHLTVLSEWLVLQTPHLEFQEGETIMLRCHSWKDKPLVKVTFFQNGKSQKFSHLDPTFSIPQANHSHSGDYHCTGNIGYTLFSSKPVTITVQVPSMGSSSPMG
Kd (hCD32a-H131 (human) [1]) [µM],Kd (hCD16a-F158 (human) [2]) [µM],Kd (hCD32a-H131 (human) [3]) [µM],Kd (hCD16a-F158 (human) [4]) [µM],Substance
530,200,–,–,IgG1f
–,–,650,> 5000,IgG1f-S267E
